We go through 7 substances from US20120039846A1.

Assay [1] addresses H77c E2 with substitutions at Val536 (row 10), Phe537 (row 11) and Asn540 (row 12). Nature of the assay: ELISA on GNA-captured mutant E2 from 293T lysates. Background: ELISA stands for enzyme-linked immunosorbent assay.
Assay [2] deals with HCV envelope glycoprotein E2, genotype 1b (hepatitis C virus genotype 1b). Description: CD81 capture ELISA; 1b E1E2 lysate preincubated with antibody (15 µg/ml), added to CD81-coated wells, detected with biotinylated CBH-4D.
Assay [3] has as its target HCV envelope glycoprotein E2, genotype 1a (hepatitis C virus genotype 1a) (UniProt P27958). Description: cell-based or functional assay.
Assay [4] concerns the target H77c E2 mutant, Ala531 substituted (hepatitis C virus genotype 1a, strain H77c) (UniProt P27958). Nature of the assay: ELISA on GNA-captured mutant E2 from 293T lysates.
The target in assay [5] is H77c E2 mutant, Thr534 substituted (hepatitis C virus genotype 1a, strain H77c) (UniProt P27958). Description: ELISA on GNA-captured mutant E2 from 293T lysates.
For assay [6], the target named is H77c E2 mutant, Asp533 substituted (hepatitis C virus genotype 1a, strain H77c) (UniProt P27958). Nature of the assay: ELISA on GNA-captured mutant E2 from 293T lysates.
Assay [7] has as its target H77c E2 mutant, Asn532 substituted (hepatitis C virus genotype 1a, strain H77c) (UniProt P27958). Description: ELISA on GNA-captured mutant E2 from 293T lysates.
The target in assay [8] is H77c E2 mutant, Pro525 substituted (hepatitis C virus genotype 1a, strain H77c) (UniProt P27958). Description: ELISA on GNA-captured mutant E2 from 293T lysates.
The target of assay [9] is HCV envelope glycoprotein E2, genotype 1b (hepatitis C virus genotype 1b). Nature of the assay: competition ELISA on GNA-captured E2 of 1b HCVpp lysate; competing antibody 20 ug/ml; competitor: biotinylated CBH-7 at 2 ug/ml.
For assay [10], the target named is H77c E2 mutant, Gly530 replaced by alanine (hepatitis C virus genotype 1a, strain H77c) (UniProt P27958). Description: ELISA on GNA-captured mutant E2 from 293T lysates.
Assay [11] has as its target H77c E2 mutant, Gly523 replaced by alanine (hepatitis C virus genotype 1a, strain H77c) (UniProt P27958). Description: ELISA on GNA-captured mutant E2 from 293T lysates.
Assay [12] deals with H77c E2 mutant, Asn540 replaced by alanine (hepatitis C virus genotype 1a, strain H77c) (UniProt P27958). Description: ELISA on GNA-captured mutant E2 from 293T lysates.
The target in assay [13] is H77c E2 mutant, Asp535 replaced by alanine (hepatitis C virus genotype 1a, strain H77c) (UniProt P27958). Nature of the assay: ELISA on GNA-captured mutant E2 from 293T lysates.
In assay [14] the target is H77c E2 mutant, Trp529 replaced by alanine (hepatitis C virus genotype 1a, strain H77c) (UniProt P27958). Nature of the assay: ELISA on GNA-captured mutant E2 from 293T lysates.
In assay [15] the target is H77c E2 mutant L692A (hepatitis C virus genotype 1a, strain H77c) (UniProt P27958). Description: alanine replacement, ELISA.
Assay [16] deals with H77c E2 mutant I696A (hepatitis C virus genotype 1a, strain H77c) (UniProt P27958). Description: alanine replacement, ELISA.
For assay [17], the target named is H77c E2 mutant D698A (hepatitis C virus genotype 1a, strain H77c) (UniProt P27958). Description: alanine replacement, ELISA.
In assay [18] the target is H77c E2 mutant D658A (hepatitis C virus genotype 1a, strain H77c) (UniProt P27958). Nature of the assay: alanine replacement, ELISA.
Assay [19] has as its target H77c E2 mutant R657A (hepatitis C virus genotype 1a, strain H77c) (UniProt P27958). Description: alanine replacement, ELISA.
Assay [20] addresses H77c E2 mutant F679A (hepatitis C virus genotype 1a, strain H77c) (UniProt P27958). Description: alanine replacement, ELISA.

CBH-4G (antibody) registered a percent decrease in binding vs wild type in assay [1] of 70 to 95%.
CBH-5 (antibody) yielded a percent reduction of E2 binding to CD81 in [2] above 90%. In assay [3], this substance returned an IC50 of 1a HCVpp neutralization of 4 µg/mL and a neutralization of 1a HCVpp at 20 µg/ml of 60%.
With HC-12 (antibody), the percent change in binding vs wild type in [4], in [5], in [6], in assay [7] and in assay [8] was below 20% in each case.
In turn, human monoclonal antibody CBH-23 gave a percent competition in [9] above 90%. Moreover, the percent reduction of E2 binding to CD81 in assay [2] was above 90%.
For the substance human monoclonal antibody HC-1, the percent reduction of E2 binding to CD81 in assay [2] is above 90%. The percent change in binding vs wild type in assay [4], in [5], in assay [6], in [7] and in assay [8] was below 20% each time. The results for the percent decrease in binding vs wild type in assay [10], in [11] and in assay [13] were above 80%, 60% and above 80%, respectively. Besides, the percent of wild-type binding (% of wild type) in assay [10], in [12] and in assay [14] was below 10 in each case.
human monoclonal antibody HC-3: the percent decrease in binding in [15], in assay [16], in [17], in [18], in [19] and in assay [20] was above 90% in each case.
In assay [2], human monoclonal antibody HC-11 yielded a percent reduction of E2 binding to CD81 above 90%. Moreover, the percent decrease in binding vs wild type came to 60% in [11] and 44% in assay [14]. This substance also had an IC50 of 1a HCVpp neutralization in assay [3] of 0.9 µg/mL.
